Experimental findings from the Human Domainome abundance scans (Beltran et al. 2025) are described below.

± gives the uncertainty stated by the source.

B1: Glucocorticoid receptor, residues 419 to 494; numbered along this chain, P04150 (parent)
chain: KLCLVCSDEASGCHYGVLTCGSCKVFFKRAVEGQHNYLCAGRNDCIIDKIRRKNCPACRYRKCLQAGMNLEARKTK

This data set covers variants of B1. Briefly: abundance fitness (aPCA) (normalised: wild type 0, dead -1); higher = more abundant; growth selection in yeast, the domain comes from the species named. Conditions: Homo sapiens.
Take KLCLVCSDEASGCHYGVLTCGSCKVFFKRAVEGQHNYLCARRNDCIIDKIRRKNCPACRYRKCLQAGMNLEARKTK [G41R]: the abundance fitness came to 0.02 ± 0.03.
Turning to KLCLVCSDEASGCHYGVLTCGSCKVFFKRAVEGQHNYLCAMRNDCIIDKIRRKNCPACRYRKCLQAGMNLEARKTK [G41M], the abundance fitness is -0.004 ± 0.052.
Take KLCLVCSDEASGCHYGVLTCGSCKVFFKRAVEGQHNYLCAARNDCIIDKIRRKNCPACRYRKCLQAGMNLEARKTK [G41A]: the abundance fitness is -0.016 ± 0.036.
In the case of KLCLVCSDEASGCHYGVLTCGSCKVFFKRAVEGQHNYLCAVRNDCIIDKIRRKNCPACRYRKCLQAGMNLEARKTK [G41V], the abundance fitness was -0.051 ± 0.035.
For the variant KLCLVCSDEASGCHYGVLTCGSCKVFFKRAVEGQHNYLCAERNDCIIDKIRRKNCPACRYRKCLQAGMNLEARKTK [G41E], the abundance fitness was -0.043 ± 0.045.
Take KLCLVCSDEASGCHYGVLTCGSCKVFFKRAVEGQHNYLCAIRNDCIIDKIRRKNCPACRYRKCLQAGMNLEARKTK [G41I]: the abundance fitness was -0.101 ± 0.061.
With KLCLVCSDEASGCHYGVLTCGSCKVFFKRAVEGQHNYLCADRNDCIIDKIRRKNCPACRYRKCLQAGMNLEARKTK [G41D] the figure was -0.049 ± 0.05; with KLCLVCSDEASGCHYGVLTCGSCKVFFKRAVEGQHNYLCAKRNDCIIDKIRRKNCPACRYRKCLQAGMNLEARKTK [G41K], 0.011 ± 0.048.
On to KLCLVCSDEASGCHYGVLTCGSCKVFFKRAVEGQHNYLCAYRNDCIIDKIRRKNCPACRYRKCLQAGMNLEARKTK [G41Y], for which the abundance fitness is -0.123 ± 0.085.
The same measure for KLCLVCSDEASGCHYGVLTCGSCKVFFKRAVEGQHNYLCANRNDCIIDKIRRKNCPACRYRKCLQAGMNLEARKTK [G41N]: 0.032 ± 0.075; for KLCLVCSDEASGCHYGVLTCGSCKVFFKRAVEGQHNYLCAQRNDCIIDKIRRKNCPACRYRKCLQAGMNLEARKTK [G41Q]: -0.055 ± 0.048; for KLCLVCSDEASGCHYGVLTCGSCKVFFKRAVEGQHNYLCAWRNDCIIDKIRRKNCPACRYRKCLQAGMNLEARKTK [G41W]: -0.017 ± 0.037.
With KLCLVCSDEASGCHYGVLTCGSCKVFFKRAVEGQHNYLCATRNDCIIDKIRRKNCPACRYRKCLQAGMNLEARKTK [G41T], the abundance fitness is -0.04 ± 0.046.
In the case of KLCLVCSDEASGCHYGVLTCGSCKVFFKRAVEGQHNYLCALRNDCIIDKIRRKNCPACRYRKCLQAGMNLEARKTK [G41L], the abundance fitness was -0.013 ± 0.035.
On to KLCLVCSDEASGCHYGVLTCGSCKVFFKRAVEGQHNYLCACRNDCIIDKIRRKNCPACRYRKCLQAGMNLEARKTK [G41C], for which the abundance fitness was -0.005 ± 0.059.
The same measure for KLCLVCSDEASGCHYGVLTCGSCKVFFKRAVEGQHNYLCASRNDCIIDKIRRKNCPACRYRKCLQAGMNLEARKTK [G41S]: -0.031 ± 0.039; for KLCLVCSDEASGCHYGVLTCGSCKVFFKRAVEGQHNYLCCGRNDCIIDKIRRKNCPACRYRKCLQAGMNLEARKTK [A40C]: -0.137 ± 0.076; for KLCLVCSDEASGCHYGVLTCGSCKVFFKRAVEGQHNYLCPGRNDCIIDKIRRKNCPACRYRKCLQAGMNLEARKTK [A40P]: -0.066 ± 0.053.
As to KLCLVCSDEASGCHYGVLTCGSCKVFFKRAVEGQHNYLCFGRNDCIIDKIRRKNCPACRYRKCLQAGMNLEARKTK [A40F], the abundance fitness was -0.088 ± 0.17.
KLCLVCSDEASGCHYGVLTCGSCKVFFKRAVEGQHNYLCWGRNDCIIDKIRRKNCPACRYRKCLQAGMNLEARKTK [A40W]: the abundance fitness is -0.079 ± 0.041.
On to KLCLVCSDEASGCHYGVLTCGSCKVFFKRAVEGQHNYLCVGRNDCIIDKIRRKNCPACRYRKCLQAGMNLEARKTK [A40V], for which the abundance fitness was determined as 0.019 ± 0.034.
With KLCLVCSDEASGCHYGVLTCGSCKVFFKRAVEGQHNYLCMGRNDCIIDKIRRKNCPACRYRKCLQAGMNLEARKTK [A40M] the figure was -0.058 ± 0.046; with KLCLVCSDEASGCHYGVLTCGSCKVFFKRAVEGQHNYLCDGRNDCIIDKIRRKNCPACRYRKCLQAGMNLEARKTK [A40D], -0.136 ± 0.085; with KLCLVCSDEASGCHYGVLTCGSCKVFFKRAVEGQHNYLCTGRNDCIIDKIRRKNCPACRYRKCLQAGMNLEARKTK [A40T], -0.067 ± 0.044.
With KLCLVCSDEASGCHYGVLTCGSCKVFFKRAVEGQHNYLCEGRNDCIIDKIRRKNCPACRYRKCLQAGMNLEARKTK [A40E] the figure was -0.048 ± 0.039.
For the variant KLCLVCSDEASGCHYGVLTCGSCKVFFKRAVEGQHNYLCLGRNDCIIDKIRRKNCPACRYRKCLQAGMNLEARKTK [A40L], the abundance fitness is -0.065 ± 0.039.
Take KLCLVCSDEASGCHYGVLTCGSCKVFFKRAVEGQHNYLCRGRNDCIIDKIRRKNCPACRYRKCLQAGMNLEARKTK [A40R]: the abundance fitness was -0.043 ± 0.031.
Turning to KLCLVCSDEASGCHYGVLTCGSCKVFFKRAVEGQHNYLCNGRNDCIIDKIRRKNCPACRYRKCLQAGMNLEARKTK [A40N], the abundance fitness was -0.024 ± 0.075.
On to KLCLVCSDEASGCHYGVLTCGSCKVFFKRAVEGQHNYLCHGRNDCIIDKIRRKNCPACRYRKCLQAGMNLEARKTK [A40H], for which the abundance fitness was -0.192 ± 0.094.
For the variant KLCLVCSDEASGCHYGVLTCGSCKVFFKRAVEGQHNYLCYGRNDCIIDKIRRKNCPACRYRKCLQAGMNLEARKTK [A40Y], the abundance fitness was -0.032 ± 0.095.
Take KLCLVCSDEASGCHYGVLTCGSCKVFFKRAVEGQHNYLCQGRNDCIIDKIRRKNCPACRYRKCLQAGMNLEARKTK [A40Q]: the abundance fitness was 0.012 ± 0.047.
With KLCLVCSDEASGCHYGVLTCGSCKVFFKRAVEGQHNYLCGGRNDCIIDKIRRKNCPACRYRKCLQAGMNLEARKTK [A40G], the abundance fitness is -0.04 ± 0.031.
For the variant KLCLVCSDEASGCHYGVLTCGSCKVFFKRAVEGQHNYLCIGRNDCIIDKIRRKNCPACRYRKCLQAGMNLEARKTK [A40I], the abundance fitness was -0.038 ± 0.079.
With KLCLVCSDEASGCHYGVLTCGSCKVFFKRAVEGQHNYLCAGRYDCIIDKIRRKNCPACRYRKCLQAGMNLEARKTK [N43Y], the abundance fitness is -0.008 ± 0.066.
With KLCLVCSDEASGCHYGVLTCGSCKVFFKRAVEGQHNYLCAGRPDCIIDKIRRKNCPACRYRKCLQAGMNLEARKTK [N43P] the figure was -0.575 ± 0.075.
KLCLVCSDEASGCHYGVLTCGSCKVFFKRAVEGQHNYLCAGRDDCIIDKIRRKNCPACRYRKCLQAGMNLEARKTK [N43D]: the abundance fitness is -0.008 ± 0.057.
